Experiment: soluble on expression in E. coli; label from the status in PepcDB or PDB records

Row | Sequence | soluble on expression in E. coli
1 | MALIQSCSGNTMTTDTIVAQATAPGRGGVGIIRVSGPLAAHVAQTVTGRTLRPRYAEYLPFTDEDGQQLDQGIALFFPNPHSFTGEDVLELQGHGGPVVMDMLIRRILQIKGVRPARPGEFSERAFLNDKMDLTQAEAIADLIDASSEQAAKSALQSLQGEFSKRIHTLVESLIHLRIYVEAAIDFPEEEIDFLADGKVSADLQTIIDNLAAVRREANQGAIMREGMKVVIAGRPNAGKSSLLNALSGKESAIVTDIAGTTRDVLREHIHIDGMPLHIIDTAGLRDASDAVEKIGIERAWEEIRQADRVLFMVDGTTTEATDPQDIWPDFVDKLPENIGITVIRNKADQTGEPLGICHVNQPTLIRLSAKTGQGVDALRQHLKECMGFSGNQEGGFMARRRHLDALERAAEHLAIGQQQLEGYMAGEILAEELRIAQQHLNEITGEFSSDDLLGRIFSSFCIGK | not soluble
2 | SDPVVLSYMDSLLRQSDVSLLDPPSWLNDHIIGFAFEYFANSQFHDCSDHVSFISPEVTQFIKCTSNPAEIAMFLEPLDLPNKRVVFLAINDNSNQAAGGTHWSLLVYLQDKNSFFHYDSHSRSNSVHAKQVAEKLEAFLGRKGDKLAFVEEKAPAQQNSYDCGMYVICNTEALCQNFFRQQTESLLQLLTPAYITKKRGEWKDLIATLAKK | soluble
3 | MKLKVVYRKVSDYICYDLKEIVLPSSLPDPPHVVKRRKLTWHERFLVLKEASRLYAASWVRDIGPELRPNDYKKQGDAEPKKQAKEAENEPSVLEDLAVAARGGMETLRPALHRLYMTRASNYKDALTSFIKGYHEGLQQVMQNKAESEAPADEADKSKKTT | soluble
4 | MAHHHHHHMNLSDSNKDLNDSKSDKSTSWVKWFNSRAFSNFLVEVDNEYITDSFNLYGLKSEMPNFNHLLSIVAGDAPEEDDAKNAFGKDAVSLYSLIHARFITTPKGLSLMKDKYIKGDFGSCPRVSCSQHNVLPIGLFDQIKIAKVHVYCPLCQEIYKIHEEDKVYLDGSFFGTSFPHILLQTYPYYATLKTPSYCTSKIFGFSVYHNFTRTEYKIAKGEFGKLSRENFLKKNPKYLKKLKKEELQIKDT | not soluble
5 | MSLRVFVCGCVHGSWDIVVDEVNKLVENGTKLDLIIVAGDLEAFITESDLLSYKRPNGTQGFGSFHKIANGEKHLPCKMLVIGGNNESTDIIFQLPFGGWITPDVYFAGRASQIYFGDLLITCTSGVYNVKNYWKKVYEHFPVRKKECYSVNHTRAFSNFQVYGLTQLNIFVTHDWPSGIPKMFRDIIPKKSLVDSDDSNDFGMQDYRKILEKKQPKYWFAAHHHIKFECEPNPGTKFIAVPRVIQDNWYSLQTFDEKPGDFMISGEWINILKKTEEYMKDPSVLKDIDWDEEWTKINSLPSADLPIKVPVMEYNNDYKVQTAKFCETYGIYNPNEGHHHHHH | soluble
6 | MSLDLEYTPEQQQLRAEIRATLQTVMTPERVAAVSEQMDGGPAVRECVRALAAANLLGVGWPKEYGGRGFSAIEQFIFAEEARRVSAPIPLVTLNTAGPTLMHYGTDEQKRRFLPAILDGTVEFAIGYSEPGAGSDLASVHTTAVRVGDEYVINGQKMFTSGAAYADYIWLAVRTDPDAKKHKGISILIVPTSSPGFSWQPLHTMPGISTFYTFYDDVRVPVSALVGAENQGWQLITTQLNFERAALGNLGALEPLFDKTLDWALSTELDGGRVIDQPWVRSALARVEAQVAAYKLVNLRVNAAMTKGALNMGEASAAKVFGTELTQQVARELLEVLDGNGVRRGAEAPLRGALESAYRQAVINTFGGGANEIQRDIIAMAALGMPRAEGHHHHHH | not soluble
7 | SMQEKIMRELHVKPSIDPKQEIEDRVNFLKQYVKKTGAKGFVLGISGGQDSTLAGRLAQLAVESIREEGGDAQFIAVRLPHGTQQDEDDAQLALKFIKPDKSWKFDIKSTVSAFSDQYQQETGDQLTDFNKGNVKARTRMIAQYAIGGQEGLLVLGTDHAAEAVTGFFTKYGDGGADLLPLTGLTKRQGRTLLKELGAPERLYLKEPTADLLDEKPQQSDETELGISYDEIDDYLEGKEVSAKVSEALEKRYSMTEHKRQVPASMFDDWWK | soluble
8 | MKPQWQQYIQIINQVVKPALGCTEPIAAAYAAAVARTLLNDDPDSIAVQVSDNLYKNSMGVYVPGTGKIGLAIAAAAGALAGNADAGLEVLASVTPEQVAQAQALIDAAKVKVERTETDEFIYCCVTLTSGEQEAMVKICGGHTLIAEKRLNGELVFTADNAQAKATGSICDGVDINIESIYRFAEEVPFEEIQFILKASELNSKLSDEGMSKPYGLEVGRTMKNGIAAGIIGEDLLNKIVMLTAAASDARMGGANLPAMSNLGSGNQGIAATIPVVITAQCYKVSEEKLARALIMSHLGAIYIKSHYPPLSAFCGNTVTSAAASMAMVYLAGGSFEQSCFAIQNVISDSSGMVCDGAKASCAMKVSTSSSAAVRSFLMALSSQNVSGQGIIANHVEKTIKNIGKMVLNGMSSTDVTIINIMSE | not soluble
9 | MAHHHHHHMGGCCKGARCPFSHELVQLPPKGVDASGGYFISGNVANYRAAASTSTASPSSRSFVGRWDDPTASSSTDGLSTLASPSSCCVTTGTSLSAEAKEWVGADSAATSSSANSATASITSVQSLRGAASPTFCVSSSSLRYRSAALRRTAQQVSPLPMPHSQRDSQPQPQQAQTQLQSQQSQKPQPSPPQPQLHQQHKRQYQPPPQPRSVANALSALLPNHSESSAAAETRHTSAAPAHPAATARTVSFTQSSNGSGSTTIAALASFFDMQRVSTGAPSATPSSAASQPSKVVFATRRDDQTPATAPTPATAAPPRYTAACITLAASNQRFDPSPSAPSIPTTATPAPAHGSSRSATTSQHMEAPLPRSREALATGAEHQTATVAKAHVTQSAAPPSAAAAPTSPPQYESRTASSAQTRVMPPAPRSQQQQAAHQAQQLRAQEEAQRQVQIQQQLHAQQQAQQLAQQQAQLQQFQQQIQPQKPPPPQQTVYMLTTSRPPTTSTPPHEGIVAPDQLPLGYTLAYAVSTPTPTASAATPILISEQPSAARPTYTLLSSCPPQSQLQSFQTAKGTVLYATPAQVLTQAAAPSENDAPRLILVNTDGTFTVLQAETLAATAGLGLSPTIMRAH | not soluble
10 | MAHHHHHHMQNLSPACTFNKNEEKIKCPSSTKLGCSDGTKIIQHEINERNMMPEIPNVSLTDENDFTFNKKRHVSSIPKNNNEYWVYPSSQQFYNSLIRKNKDIDKNYIDAVVSVHNEVNEESWKQILKYEHMHKRSCTDVTLHRFLGKFDDLSIKARFRSIFSRGKKKKNNNNNKKSVKGFFFMGRPFDRHDWYVNRCGTQVKYILDYYNDESINDDKNIYIDVRPAMNSFSNVWDRLRYPFYEFYFKYVKKDELFK | not soluble
11 | DDFETSLTELEPLEKDAYIVRLVFAGSTTTEPIVSSLSTAYDIKINILEANIKNTKNGTVGFLVLHIPYISSVDFGKFEKELIERQVKMEVLRHG | soluble
12 | MSPHPQPAPEPVIQYIASCKLPTPWGEFVMHGFEEESGQEHVALTLGEVGDGLPVLARLHSECLTGDALFSLRCDCGFQLEAAMEAISKAGRGALLYLRQEGRGIGLINKIRAYKLQDGGADTVEANERLGFPADMRDFRIARHMLAHLGIGSVKVMTNNPRKLATLEAAGIAVVERVPLQVGRNPYNDRYLDTKAAKLGHMLLKLEHHHHHH | soluble
13 | MGSDKIHHHHHHMQMDLETAVMKKKESLNETDKAIVSYLLKYPEDASKLSLMELAQKLYVSKSAIFRLSKKLGLSGFSELKFELTELTNKKVQNKKYVQELDFNNNLHQIIDETFKYFKDANFHDLFIDLDNAETIYIYSTGWQQQIIAEYLAHSFFLIGKKAIILPSAKDEVAMLGRSIEENDMLFVISFGGFNKTIIEELKKIDTVTDKLKFVSLTSWQPGKIASLSDYSFFFKTTPFQISNQNAVTFSSAYVLIDLIINEYGKHCNSKK | not soluble
14 | MSPQESRRLSIQRCIQSLVHACQCRNANCSLPSCQKMKRVVQHTKGCKRKTNGGCPVCKQLIALCCYHAKHCQENKCPVPFCLNIKHK | soluble
15 | MSLKILIIEDDLALARSISHNLHDLGHFCEIISSISEENKEPYDVILVSSKVCTQGRCEHFVRYNSKQIIIMMASHVNEDGVNKPIQAGARDYILKPFKMDELLRKIQYHKAYQEMTARLGFYENYLDFIHAELPLPKDFSYRPPFIIHTPSQELANAYLLQYAKERQMDFSFFSLKDTTWKELYKNKDKLERPFYIMHLEELKKDEQLKLLELARSCPIVLSYTHKEPLEFPKIVSIECGNKPLSLFNNHTTFLSIQEYEKEAIRHFSSTCTDTELANKLGISRKSLWEKRRKYNLPREGHHHHHH | soluble
16 | MGHHHHHHSHMHAPLSLLKQMLKEHQIDTEKAVTFEEYIAMRLKLQELMGKFASIGEWDLYQKAADLMMHIGIQWMK | not soluble
17 | MRPNYTVSSSGTNKGSVLAVCNTTYYKSNKLISKNEITLYKGFRSLSTNHKIETIVHEFGHGFGLGHVKTKNAIMLDKGFINKTKPQTDDFNGIKALYKLEHHHHHH | not soluble
18 | SNAMELEQKLNLLNDLIVREIVNPLPPPYKVGVDLGTADIVLVVTDQEGIPVAGALKWASVVKDGLVVDYIGAIQIVRELKAKVERLLGSELFQAATAIPPGTVGRNAEACGHVVAGAGLELVTLVDEPVAAARALGINDGIVVDIGGGTTGIAVIEKGKITATFDEPTGGTHLSLVLAGSYKIPFEEAETIKKDFSRHREIMRVVRPVIEKMALIVKEVIKNYDQTLPVYVVGGTAYLTGFSEEFSRFLGKEVQVPIHPLLVTPLGIALFG | soluble
19 | MGSDKIHHHHHHMKNGKISESVLKRSVLKQLHTKSDRILFKPAVGEDCAVISMQAGGKTKLVTATQTFTLDVSDKHVRANCAVYDALNNIYAMGADPVGIELALLVPTTENEAVLRETVRAIDAVCEKAGIVVLGGHTQVSRAVKNIVVTVTAIGEAYEQALTPSSAAAPGMDVIVTGYVGLEGTAILANEKRTELETRFSKAFIDKSAAYIDHISTAMEAASAIGAGVAAIHDASQGGIFGALWDMAEASGIGLDIDLKKLPIRQDTIEISEFFDINPYKLLSGGSLIIIAADGTRVVRELEKTGQNAVIVGATTDSNDRVLISGEERRFLETAQTDEIYKVFN | not soluble
20 | MGSDKIHHHHHHENLYFQGMKKVFITTGTEHYLRQLMENYIGENVTLLQNFSQSLLYQESTGEKLFQEGKEYRVLQSSGSLKGFGIVVFEYIQLRDEEIPIFLQMYQHASLHFSETPGLQSTKLTKAMNTNQFLIVSFWDSEVFFQEWKKTPLHKEITSIMKKNNTQVGFSHEDIYHYPEFSHDAK | soluble
21 | MGSDKIHHHHHHMSAGLTGIRVAVIGGDDREIYMIPELQKLGAYIVGVGFEKAAPIQGVTLLSSPLEAVEKADVLLFPMYGTDERGDVKAKYSETPIVLNKELLKAVSPKVPLFIGWARPALKSAAEMLGIQIVETANLDQLAILNSIPSAEGAIQMAMEASPITIHGSESFVLGLGRCGWTLARTLKGMGAHVTGVARKPADLARALEMGLEAVHFADLDEKIGKAELIFNTVPHLILDKVMLEQVNHEAVIIDIASLPGGTDFEYAKAKGIKAMLAPGLPGKVAPKAAGKILAQVYPQLILRHLTTKNASLKF | not soluble
22 | MLKYNVRGENIEVTDALRSYVEKRLNKLEKYFELNQDVIAHVNLRVYRDHSAKVEVTIPLPYLVLRAEETTDDMYRSIDFVSEKLERQIRKYKTRVNRKSREKGLQDFFVEQPEEEKKPSEFDIVRNKRVSLKPMDPEEAILQMDMLEHDFFVFEDAETNGTSVVYRRNDGRYGLIETNELEHHHHHH | soluble

— the DeepSol protein solubility set
